Experimental data as given in patent US20110021367A1 (INDIAN INSTITUTE OF SCIENCE, published 2011).

T1: σ^L 1-177 (Mycobacterium tuberculosis sigma factor L, Rv0735), N-term His-tag (Mycobacterium tuberculosis, UniProt P9WGH5 1-177)
T1 construct: range 1-177; also called SigL; Mtb σ^L; not shown: N-terminal His-tag from pET-Duet1 MCS1
T1 sequence: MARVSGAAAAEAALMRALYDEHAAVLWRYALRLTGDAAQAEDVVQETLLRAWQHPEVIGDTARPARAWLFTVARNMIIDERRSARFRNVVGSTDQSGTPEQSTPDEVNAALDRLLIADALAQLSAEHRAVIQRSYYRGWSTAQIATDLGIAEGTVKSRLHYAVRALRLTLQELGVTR

B1: holo-RslA 1-108 (Zn2+ bound N-terminal cytosolic domain of M. tuberculosis anti-σ^L factor RslA), N-term His-tag (other)
chain: MTMPLRGLGPPDDTGVREVSTGDDHHYAMWDAAYVLGALSAADRREFEAHLAGCPECRGAVTELCGVPALLSQLDRDEVAAISESAPTVVASGLSPELLPSLLAAVHR
modifications: Zn2+ bound in 1:1 stoichiometry (holo, reduced; three free cysteines)
notes: range 1-108; Immobilized on a CM5 chip for SPR; Self-associates into dimers and tetramers in solution; also called Mtb RslA; Rsl1A 1-108; not shown: N-terminal His-tag from pET-Duet1 MCS1
B2: σ^L2 domain of M. tuberculosis σ^L (N-term His-tag σ^L 1-95) (other)
chain: MARVSGAAAAEAALMRALYDEHAAVLWRYALRLTGDAAQAEDVVQETLLRAWQHPEVIGDTARPARAWLFTVARNMIIDERRSARFRNVVGSTDQ
notes: range 1-95; not shown: N-terminal His-tag from pET-Duet1 MCS1

Legend:
[1] = biological target: the molecule itself; assay: analytical gel filtration; dynamic light scattering
[2] = biological target: T1, σ^L 1-177 (Mycobacterium tuberculosis …); assay: SPR (BIACORE 2000), RslA immobilized on CM5 chip, σ^L as analyte
[3] = biological target: B1; assay: SPR (BIACORE 2000), RslA immobilized on CM5 chip, σ^L2 as analyte

## B1
[1]
  binding result: binds
[2]
  Kd: ~20 nM

## B2
[3]
  Kd: ~2000 nM
  fold reduction in affinity against intact σ^L: ~100 fold
